Consider 91 sequences from the supplement of paper PMC9112550, “Optimization of the antimicrobial peptide Bac7 by deep mutational scanning” (BMC Biology, 2022).
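Further: peptides expressed intracellularly from a pBAD plasmid library in pooled LB shake-flask culture, induced with 0.3% L-arabinose, DNA abundance read by NGS, three biological replicates, DESeq2 with apeglm shrinkage.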

In this data set the test system is Escherichia coli TOP10. Kind of data set: shrunken log2 fold change of peptide-encoding DNA abundance (4.5 h post-induction vs induction); higher = less antimicrobial activity (less host growth inhibition). Particulars: time post-induction: 4.5 h; library: site-saturation at positions 5, 18, 19, 20.
For the sequence RRIRDRPPRLPRPRPRPLEMPRP, the “shrunken log2 fold change” value came out at 0.0813.

Consider RRIRFRPPRLPRPRPRPFPRPRP, for which the “shrunken log2 fold change” value is -0.0288.

With RRIRFRPPRLPRPRPRPTFLPRP, the “shrunken log2 fold change” value is -0.452.

In the case of RRIRRRPPRLPRPRPRPHTGPRP, the “shrunken log2 fold change” value was -0.105.

As to RRIRPRPPRLPRPRPRPPKTPRP, the “shrunken log2 fold change” value is 0.246.

As for RRIRQRPPRLPRPRPRPEIHPRP, the “shrunken log2 fold change” value is -0.0415.

In the case of RRIRERPPRLPRPRPRPVNAPRP, the “shrunken log2 fold change” value is -0.353.

As to RRIRKRPPRLPRPRPRPTGRPRP, the “shrunken log2 fold change” value was found to be 0.609.

For the sequence RRIRYRPPRLPRPRPRPWSHPRP, the “shrunken log2 fold change” value is -0.05.

For the sequence RRIRDRPPRLPRPRPRPGVQPRP, the “shrunken log2 fold change” value is -0.0372.

As for RRIRPRPPRLPRPRPRPVKHPRP, the “shrunken log2 fold change” value is -0.0566.

For the sequence RRIRDRPPRLPRPRPRPERWPRP, the “shrunken log2 fold change” value turned out to be 1.3.

As for RRIRNRPPRLPRPRPRPHDQPRP, the “shrunken log2 fold change” value came out at 0.0402.

Regarding RRIRARPPRLPRPRPRPRGLPRP, the “shrunken log2 fold change” value is 0.628.

Take RRIRNRPPRLPRPRPRPTENPRP: the “shrunken log2 fold change” value came to 0.0685.

As to RRIRGRPPRLPRPRPRPLRAPRP, the “shrunken log2 fold change” value amounted to 1.72.

Regarding RRIRWRPPRLPRPRPRPANYPRP, the “shrunken log2 fold change” value is -0.0848.

On to RRIRYRPPRLPRPRPRPSVFPRP, for which the “shrunken log2 fold change” value is -0.219.

In the case of RRIRERPPRLPRPRPRPNKCPRP, the “shrunken log2 fold change” value is -0.522.

For RRIRQRPPRLPRPRPRPVNMPRP, the “shrunken log2 fold change” value was found to be 0.0206.

With RRIRTRPPRLPRPRPRPKDAPRP, the “shrunken log2 fold change” value turned out to be 0.103.

On to RRIRRRPPRLPRPRPRPASVPRP, for which the “shrunken log2 fold change” value is 0.267.

For the sequence RRIRSRPPRLPRPRPRPCAPPRP, the “shrunken log2 fold change” value was 0.0418.

On to RRIRWRPPRLPRPRPRPLHNPRP, for which the “shrunken log2 fold change” value is -0.116.

RRIRWRPPRLPRPRPRPWEDPRP: the “shrunken log2 fold change” value is -0.0135.

In the case of RRIRMRPPRLPRPRPRPTLRPRP, the “shrunken log2 fold change” value was determined as 0.334.

Take RRIRVRPPRLPRPRPRPLRDPRP: the “shrunken log2 fold change” value was determined as 0.725.

Regarding RRIRQRPPRLPRPRPRPSGSPRP, the “shrunken log2 fold change” value is -0.0833.

As for RRIRLRPPRLPRPRPRPHVGPRP, the “shrunken log2 fold change” value is -0.442.

On to RRIRVRPPRLPRPRPRPTCKPRP, for which the “shrunken log2 fold change” value was -0.0395.

For RRIRHRPPRLPRPRPRPMQEPRP, the “shrunken log2 fold change” value is -0.01.

Regarding RRIRRRPPRLPRPRPRPYESPRP, the “shrunken log2 fold change” value worked out at 0.0181.

On to RRIRTRPPRLPRPRPRPPNRPRP, for which the “shrunken log2 fold change” value worked out at 0.135.

Regarding RRIRWRPPRLPRPRPRPLIHPRP, the “shrunken log2 fold change” value is -0.0681.

RRIRSRPPRLPRPRPRPWWFPRP: the “shrunken log2 fold change” value worked out at 0.0202.

On to RRIRFRPPRLPRPRPRPFRLPRP, for which the “shrunken log2 fold change” value was -0.197.

On to RRIRLRPPRLPRPRPRPPKPPRP, for which the “shrunken log2 fold change” value was 0.555.

RRIRHRPPRLPRPRPRPVCKPRP: the “shrunken log2 fold change” value is -0.14.

As to RRIRERPPRLPRPRPRPEATPRP, the “shrunken log2 fold change” value was 0.18.

RRIRYRPPRLPRPRPRPALAPRP: the “shrunken log2 fold change” value worked out at 0.194.

For RRIRRRPPRLPRPRPRPYRAPRP, the “shrunken log2 fold change” value was -0.47.

As to RRIRKRPPRLPRPRPRPLEPPRP, the “shrunken log2 fold change” value came out at 0.238.

Turning to RRIRDRPPRLPRPRPRPHDNPRP, the “shrunken log2 fold change” value was -0.323.

In the case of RRIRCRPPRLPRPRPRPVELPRP, the “shrunken log2 fold change” value is 0.103.

RRIRIRPPRLPRPRPRPHKFPRP: the “shrunken log2 fold change” value is -0.291.

With RRIRARPPRLPRPRPRPRIQPRP, the “shrunken log2 fold change” value is 0.505.

Turning to RRIRPRPPRLPRPRPRPDDNPRP, the “shrunken log2 fold change” value was -0.0275.

Consider RRIRCRPPRLPRPRPRPQAIPRP, for which the “shrunken log2 fold change” value is -0.205.

Regarding RRIRWRPPRLPRPRPRPVQWPRP, the “shrunken log2 fold change” value amounted to 0.251.

RRIRWRPPRLPRPRPRPGMNPRP: the “shrunken log2 fold change” value is -0.0747.

Turning to RRIRARPPRLPRPRPRPGDKPRP, the “shrunken log2 fold change” value turned out to be 0.173.

In the case of RRIRERPPRLPRPRPRPIRAPRP, the “shrunken log2 fold change” value stood at 0.0262.

For the sequence RRIRMRPPRLPRPRPRPEAMPRP, the “shrunken log2 fold change” value was 0.204.

Take RRIRQRPPRLPRPRPRPEGFPRP: the “shrunken log2 fold change” value is -0.0494.

In the case of RRIRGRPPRLPRPRPRPQVEPRP, the “shrunken log2 fold change” value is -0.0312.

With RRIRCRPPRLPRPRPRPLLWPRP, the “shrunken log2 fold change” value worked out at 0.671.

Consider RRIRWRPPRLPRPRPRPTMAPRP, for which the “shrunken log2 fold change” value worked out at 0.449.

For the sequence RRIRWRPPRLPRPRPRPNMVPRP, the “shrunken log2 fold change” value is -0.0148.

Regarding RRIRMRPPRLPRPRPRPCVDPRP, the “shrunken log2 fold change” value stood at 0.0636.

In the case of RRIRRRPPRLPRPRPRPTFWPRP, the “shrunken log2 fold change” value worked out at 0.436.

As for RRIRLRPPRLPRPRPRPYIMPRP, the “shrunken log2 fold change” value was -1.45.

For the sequence RRIRSRPPRLPRPRPRPDRVPRP, the “shrunken log2 fold change” value is -0.144.

As to RRIRPRPPRLPRPRPRPKPHPRP, the “shrunken log2 fold change” value came out at 0.294.

RRIRRRPPRLPRPRPRPHIEPRP: the “shrunken log2 fold change” value is -0.00196.

In the case of RRIRCRPPRLPRPRPRPDGIPRP, the “shrunken log2 fold change” value was -0.0101.

Consider RRIRKRPPRLPRPRPRPCLTPRP, for which the “shrunken log2 fold change” value is -0.0179.

With RRIRYRPPRLPRPRPRPTQTPRP, the “shrunken log2 fold change” value stood at 0.0249.

Turning to RRIRCRPPRLPRPRPRPKYIPRP, the “shrunken log2 fold change” value is -0.828.

Turning to RRIRTRPPRLPRPRPRPFPPPRP, the “shrunken log2 fold change” value is -0.0137.

Consider RRIRCRPPRLPRPRPRPFSEPRP, for which the “shrunken log2 fold change” value is -0.929.

On to RRIRHRPPRLPRPRPRPLVPPRP, for which the “shrunken log2 fold change” value is -0.0575.

In the case of RRIRFRPPRLPRPRPRPWVWPRP, the “shrunken log2 fold change” value came out at 0.212.

As for RRIRFRPPRLPRPRPRPETAPRP, the “shrunken log2 fold change” value worked out at 0.577.

Consider RRIRSRPPRLPRPRPRPRFDPRP, for which the “shrunken log2 fold change” value was 0.248.

As for RRIRCRPPRLPRPRPRPAKCPRP, the “shrunken log2 fold change” value was -0.101.

Turning to RRIRSRPPRLPRPRPRPACQPRP, the “shrunken log2 fold change” value was 0.0147.

As for RRIRKRPPRLPRPRPRPCYNPRP, the “shrunken log2 fold change” value was -0.428.

As to RRIRQRPPRLPRPRPRPCGCPRP, the “shrunken log2 fold change” value was found to be 0.164.

Take RRIRKRPPRLPRPRPRPIQYPRP: the “shrunken log2 fold change” value is -0.193.

For RRIRARPPRLPRPRPRPMCVPRP, the “shrunken log2 fold change” value is 0.188.

On to RRIRMRPPRLPRPRPRPHRFPRP, for which the “shrunken log2 fold change” value was -0.0727.

As for RRIRWRPPRLPRPRPRPYWQPRP, the “shrunken log2 fold change” value was -0.0738.

Take RRIRRRPPRLPRPRPRPHLYPRP: the “shrunken log2 fold change” value is 0.176.

For RRIRYRPPRLPRPRPRPCAFPRP, the “shrunken log2 fold change” value was -0.353.

On to RRIRVRPPRLPRPRPRPIKLPRP, for which the “shrunken log2 fold change” value is -0.486.

Consider RRIRSRPPRLPRPRPRPGHFPRP, for which the “shrunken log2 fold change” value is -0.0564.

RRIRVRPPRLPRPRPRPGAGPRP: the “shrunken log2 fold change” value was 0.284.

For the sequence RRIRYRPPRLPRPRPRPHEAPRP, the “shrunken log2 fold change” value was -0.215.

As to RRIRGRPPRLPRPRPRPRQKPRP, the “shrunken log2 fold change” value worked out at 1.43.

RRIRHRPPRLPRPRPRPHKTPRP: the “shrunken log2 fold change” value worked out at 0.00711.

Regarding RRIRMRPPRLPRPRPRPKRTPRP, the “shrunken log2 fold change” value was determined as 3.45.
